According to the supplement of paper PMC7125110:
± gives the standard error. For some of these results: Fewer inactive variants are shown than the library holds.

B1: glmS ribozyme (parent)
chain: AUAAAAGCGCCAGAACUACAGAAAUGUAGUUGACGAGGAGGAGGUUUAUCGAAUUUUCGGCGGAUGCCUCCAAA

What was measured:
Conditions in all cases: with glucosamine-6-phosphate
glucosamine-6-phosphate [1] = variants of: B1; experiment: kcat; higher = faster cleavage; RNA array
Method in brief: (§1)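 Tiles of sequenced MiSeq chips were imaged over ~14 h at 37 °C. On them, barcoded ribozyme variants had been transcribed in situ by E. coli RNA polymerase and were tracked via a hybridised Cy3 probe while glucosamine-6-phosphate (40 μM to 10 mM) in HEPES/KCl/Mg(OAc)2 buffer flowed in. Per-tile medians, normalised to baseline and to non-cleaving reference variants, were fit to one- or two-exponential decays for kobs, and weighted Michaelis–Menten fits gave kcat and KM.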

glucosamine-6-phosphate [2] = variants of: B1; experiment: KM; higher = weaker cofactor use; RNA array
Method in brief: as §1

glucosamine-6-phosphate [3] = variants of: B1; experiment: self-cleavage kobs at 40 uM GlcN6P; higher = faster cleavage; RNA array
Method in brief: as §1

glucosamine-6-phosphate [4] = variants of: B1; experiment: self-cleavage kobs at 640 uM GlcN6P; higher = faster cleavage; RNA array
Method in brief: as §1

glucosamine-6-phosphate [5] = variants of: B1; experiment: self-cleavage kobs at 2500 uM GlcN6P; higher = faster cleavage; RNA array
Method in brief: as §1

glucosamine-6-phosphate [6] = variants of: B1; experiment: self-cleavage kobs at 10000 uM GlcN6P; higher = faster cleavage; RNA array
Method in brief: as §1

glucosamine-6-phosphate [7] = variants of: B1; experiment: self-cleavage kobs at 160 uM GlcN6P; higher = faster cleavage; RNA array
Method in brief: as §1

Variant	kcat (glucosamine-6-phosphate [1])	KM (glucosamine-6-phosphate [2])	self-cleavage kobs at 40 uM GlcN6P (glucosamine-6-phosphate [3])	self-cleavage kobs at 640 uM GlcN6P (glucosamine-6-phosphate [4])	self-cleavage kobs at 2500 uM GlcN6P (glucosamine-6-phosphate [5])	self-cleavage kobs at 10000 uM GlcN6P (glucosamine-6-phosphate [6])	self-cleavage kobs at 160 uM GlcN6P (glucosamine-6-phosphate [7])
AUAAAAGCGCCAGAACUACAGAAAUGUAGUUGACGAGGAGGAGGCUUAUCGAAUGUUCGGCGGAUGCCUCCAAA [U45C U55G]	0.0035 ± 0.0008 s⁻¹	2770 ± 960 µM	6.05e-05 ± 8.1e-06 s⁻¹	0.000502 ± 9.9e-05 s⁻¹	0.00165 ± 0.00048 s⁻¹	0.00283 ± 0.00033 s⁻¹	
AUAAAAGCGCCAGAACUACAGAAAUGUAGUUGCCGAGUAGGAGGUUUAUCGAAUUUUCGGCGGAUGCCUCCAAA [A33C G38U]	< 1e-05 s⁻¹		< 1e-05 s⁻¹	< 1e-05 s⁻¹		< 1e-05 s⁻¹	< 1e-05 s⁻¹
AUAAAUGCGCCAGAACUACAGAAAUGUAGUUGACGAGGAGGAGGUUUAUCGAAUUUUCGGCGGAUGCCUUCAAA [A6U C70U]	0.000253 ± 4.2e-05 s⁻¹	1200 ± 440 µM		8.14e-05 ± 9.8e-06 s⁻¹	0.00021 ± 2.2e-05 s⁻¹	0.000197 ± 2.7e-05 s⁻¹	
AUAAAAGCGCCACCACUACAGAAAUGUAGUUGACGAGGAGGAGGUUUAUCGAAUUUUCGGAGGAUGUCUCCAAA [G13C A14C C61A C67U]	3.08e-05 ± 1.3e-05 s⁻¹			4.47e-05 ± 1.8e-05 s⁻¹			
AUAAAAGCGCCAGAUCUACAGAAAUGUAGUUGACGAGGAGGAGGUUUAUCGUAUUUUCGGCGGAUGCAUCCAAA [A15U A52U C68A]	2.12e-05 ± 5.2e-06 s⁻¹					< 1e-05 s⁻¹	
AUAAAAGCGCCAGAACUACAGAAAUGUAGUUGACGAGGAGGAGGUUUAUCGAAUUUUCGGCUGAUGUCUCCAAA [G62U C67U]	< 1e-05 s⁻¹					< 1e-05 s⁻¹	
AUAAAAGCGCUAGAACUACAGAAAUGUAGUUGACGAGGAGGAGGUUUAUCGAAUAGUCGGCGGAUGCCUCCAAA [C11U U55A U56G]	0.000956 ± 0.00038 s⁻¹		4.23e-05 ± 1.9e-05 s⁻¹	0.000289 ± 4.5e-05 s⁻¹	0.000451 ± 0.00012 s⁻¹	0.00113 ± 0.00024 s⁻¹	
AUAAAAGCGCCAGCACUACAGAAAUGUAGUUGACGAGGACGAGGUUUAUCGAAUUUUCGGCGGAUGCCUCCAAA [A14C G40C]	0.000718 ± 6.3e-05 s⁻¹	3650 ± 530 µM		0.000114 ± 1.8e-05 s⁻¹	0.000285 ± 3.3e-05 s⁻¹	0.000533 ± 7.6e-05 s⁻¹	2.58e-05 ± 1.1e-05 s⁻¹
AUAAAAGCGCCAGAACUACAGAAAUGUAGUUGACUAGGAGGAGGUUUAUCGAAUUUUCGGCGGAAGCCUCCAAA [G35U U65A]	< 1e-05 s⁻¹		< 1e-05 s⁻¹	< 1e-05 s⁻¹	< 1e-05 s⁻¹		
AUAAAAGCGCCAGAACUACAGAAAUGUAGUUGACGAGGAGGAGGUACAUCGAAUUUUCGGCGGAUGCCUCCAAA [U46A U47C]	0.00192 ± 0.00044 s⁻¹	2240 ± 840 µM	5.61e-05 ± 1.2e-05 s⁻¹	0.00034 ± 5.6e-05 s⁻¹	0.00121 ± 0.00021 s⁻¹	0.00157 ± 0.00019 s⁻¹	0.000141 ± 2.8e-05 s⁻¹
AUAAAAUCGCCAGAACUACAGAAAUGUAGUUGACGAGGAGGAGGUUUAUCGAAUUUUCGGCGGAUGGCUCCAAA [G7U C67G]	< 1e-05 s⁻¹				< 1e-05 s⁻¹		
AUAAAAGCGCCAGAACUACAGAAAUGUACUUGACGAGGAGGAGGUUGAUCGAAUUUUCGGCGGAUGCCUCCAAA [G29C U47G]	0.000341 ± 9.9e-05 s⁻¹			7.76e-05 ± 1.8e-05 s⁻¹	0.000393 ± 8.4e-05 s⁻¹	0.000269 ± 4.6e-05 s⁻¹	
AUAAAAGCGCCAGAACUACAGAAAUGUAGUUGACGAGGAGGAGGUUUAUCGAACUUGCGGCGGAUGCCUCCAAA [U54C U57G]	0.000492 ± 1.5e-05 s⁻¹					6.43e-05 ± 1.1e-05 s⁻¹	
AUAAAAGCGCCAGAUCUACAGAAAUGUAGUUGACGAGGAGGAGGUUUAUCGAAUUUUCGGCGGAUGCUUCCAAA [A15U C68U]	0.000466 ± 3e-05 s⁻¹	1610 ± 210 µM	1.92e-05 ± 9.6e-06 s⁻¹	0.000127 ± 9.9e-06 s⁻¹	0.000277 ± 2.2e-05 s⁻¹	0.000409 ± 2.7e-05 s⁻¹	4.94e-05 ± 7.4e-06 s⁻¹
AUAAAAGCGCCAGAACUACAGAAAUGUAGGUGACGAGGAGGAGGUUUAUCGAAUUUUCGGCGGAUGCCUGCAAA [U30G C70G]	0.000136 ± 7.2e-06 s⁻¹	439 ± 110 µM		9.18e-05 ± 2.2e-05 s⁻¹	0.000124 ± 2.3e-05 s⁻¹	0.000127 ± 1.4e-05 s⁻¹	
AUAAAAGCGCCAGAACUACAGAAAUGUAGUUGACGAGGAGGAGGCUUAUCGAAUUUUCGGCGGAUGCUUCCAAA [U45C C68U]	0.00315 ± 0.00089 s⁻¹	4960 ± 2100 µM	3.71e-05 ± 1e-05 s⁻¹	0.000525 ± 0.00011 s⁻¹	0.000877 ± 0.00019 s⁻¹	0.00218 ± 0.00028 s⁻¹	8.24e-05 ± 1.9e-05 s⁻¹
AUAAAAGCGCCAGAACUACAGAAAUGUAGUUGACGAGGAGGAGGUUUGUCGAACUUUCGGCGGAUGCCUCCAAA [A48G U54C]	0.000123 ± 1.5e-05 s⁻¹	1310 ± 500 µM		3.59e-05 ± 1.1e-05 s⁻¹	0.000101 ± 1.8e-05 s⁻¹	0.000104 ± 1.3e-05 s⁻¹	
